A short description of the data set: protein stability index of a GFP-peptide fusion (yeast GPS) (PSI 1-4); higher = more stable; sorted into four equal gates, so the index is relative within each strain. Summed up: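 Sequencing reads from sorted gates were used to score each peptide. The library consisted of tiled 17-residue yeast protein peptides fused downstream of GFP on a Cherry-expressing plasmid, pooled and carried in yeast. Mid-log cultures in leucine-free medium were split into four equal gates by GFP/Cherry ratio, and each gate's plasmids were PCR-amplified and Illumina-sequenced. The protein stability index adds up, over all gates, the read frequency multiplied by the gate number.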

± gives the uncertainty stated by the source.

In the case of CIPLVGISVPFHSTYLM [FAS1], the protein stability index by setting is: (doa10∆) 1.43 ± 0.041; (pdr5∆) 1.3 ± 0.04; (san1∆) 1.27 ± 0.069; (ubr1∆) 1.39 ± 0.027.

With AKKLSSFDFGNENEDED [ARP9], the protein stability index was determined as 3.24 ± 0.11 (doa10∆), 3.13 ± 0.12 (pdr5∆) and 3.15 ± 0.087 (ubr1∆).

Regarding NKNLPFVWLSSEENIGS [SWI1], the protein stability index runs as follows: (doa10∆) 2.9 ± 0.067; (pdr5∆) 1.84 ± 0.072; (san1∆) 1.59 ± 0.063; (ubr1∆) 1.74 ± 0.053.

As to QWYTLQSQLNVTLSQLV [MED8], the protein stability index by setting is: (doa10∆) 1.54 ± 0.034; (pdr5∆) 2.15 ± 0.032; (san1∆) 1.85 ± 0.075; (ubr1∆) 1.67 ± 0.032.

As to RGIPRISTLFQRDRHTL [PRP8], the protein stability index runs as follows: (doa10∆) 2.57 ± 0.095; (pdr5∆) 2.66 ± 0.16; (san1∆) 2.08 ± 0.079; (ubr1∆) 2.68 ± 0.085.

Consider PITSETAMKKVEDGNIL [RPL25], for which the protein stability index (doa10∆) is 3.05 ± 0.16, the protein stability index (pdr5∆) amounted to 3.18 ± 0.095, the protein stability index (san1∆) stood at 3.12 ± 0.22 and the protein stability index (ubr1∆) was determined as 3.24 ± 0.15.

NLLTPQPTNFTTKRLWS [MCD1] returned a protein stability index (doa10∆) of 2.79 ± 0.074, a protein stability index (pdr5∆) of 2.79 ± 0.063, a protein stability index (san1∆) of 2.73 ± 0.064 and a protein stability index (ubr1∆) of 2.85 ± 0.065.

Sequence DIEIVRVNKNAPAVELH [FAS2] displayed a protein stability index (doa10∆) of 2.87 ± 0.061, a protein stability index (pdr5∆) of 3.08 ± 0.064, a protein stability index (san1∆) of 3.24 ± 0.091 and a protein stability index (ubr1∆) of 2.96 ± 0.049.

Take YYVGQVMRNNESTETGY [DIS3]: the protein stability index reads like this: (doa10∆) 3.21 ± 0.069; (pdr5∆) 3.19 ± 0.092; (san1∆) 3.18 ± 0.055; (ubr1∆) 3.23 ± 0.064.

For the sequence IEDLRADINSNRLSNPQ [YOR098C/NUP1], the protein stability index came out at 2.64 ± 0.09 (doa10∆), 2.8 ± 0.076 (pdr5∆), 2.72 ± 0.06 (san1∆) and 2.93 ± 0.061 (ubr1∆).

In the case of ALAEGHGDAAVLLVEKY [NAS6], the protein stability index runs as follows: (pdr5∆) 3.12 ± 0.1; (san1∆) 3.04 ± 0.09; (ubr1∆) 2.6 ± 0.11.

Regarding KTNIIEKAMDYAISIEN [RPN12], the protein stability index reads like this: (doa10∆) 3.13 ± 0.18; (pdr5∆) 3.25 ± 0.12; (san1∆) 2.95 ± 0.1; (ubr1∆) 3.45 ± 0.12.

As for TAVKQGVTSLGIKATNG [PRE8], the protein stability index came out at 2.41 ± 0.065 (doa10∆), 2.06 ± 0.055 (pdr5∆), 1.87 ± 0.072 (san1∆) and 1.71 ± 0.083 (ubr1∆).

Consider LGYTHIAINFTVNHSEK [RPP1], for which the protein stability index by setting is: (doa10∆) 1.35 ± 0.038; (pdr5∆) 1.25 ± 0.036; (san1∆) 1.56 ± 0.062; (ubr1∆) 1.41 ± 0.042.

For the sequence VGVENNGQYAAFVKDMQ [RPC37], the protein stability index reads like this: (doa10∆) 3.21 ± 0.12; (pdr5∆) 2.79 ± 0.15; (san1∆) 3.19 ± 0.092; (ubr1∆) 3.41 ± 0.1.

With VIVELLPQSEWKAPSSI [DIS3], the protein stability index runs as follows: (doa10∆) 2.79 ± 0.071; (pdr5∆) 2.57 ± 0.062; (san1∆) 2.02 ± 0.062; (ubr1∆) 2.1 ± 0.048.

As to LVGEYWEQLKITVVPVV [QCR6], the protein stability index (doa10∆) turned out to be 1.38 ± 0.26.

Sequence ISDVKIQVAAFIYGMSA [PRP8] came in with a protein stability index (pdr5∆) of 2.17 ± 0.17, a protein stability index (san1∆) of 1.84 ± 0.12 and a protein stability index (ubr1∆) of 1.94 ± 0.14.

In the case of ATNRVDVLDPALLRSGR [RPT5], the protein stability index by setting is: (doa10∆) 3.13 ± 0.12; (pdr5∆) 2.84 ± 0.11; (san1∆) 3.04 ± 0.085; (ubr1∆) 2.94 ± 0.075.

As for TSLKCLVNRKPIPFEFQ [SNF2], the protein stability index amounted to 2.56 ± 0.054 (doa10∆), 2.21 ± 0.043 (pdr5∆), 2.13 ± 0.053 (san1∆) and 2.19 ± 0.03 (ubr1∆).

Take DIWQSRDQGNDSLNDDL [YIL149C/MLP2]: the protein stability index is 3.53 ± 0.28 (doa10∆), 3.65 ± 0.17 (san1∆) and 3.76 ± 0.14 (ubr1∆).

As to IYRGVLNDENSDDYDNE [SMC1], the protein stability index worked out at 3.19 ± 0.24 (doa10∆), 3.41 ± 0.15 (pdr5∆), 3.21 ± 0.24 (san1∆) and 3.42 ± 0.14 (ubr1∆).

On to SNGGNNMLPQRQSSVGS [SNF2], for which the protein stability index stood at 1.76 ± 0.067 (doa10∆), 2.18 ± 0.097 (pdr5∆), 2.19 ± 0.076 (san1∆) and 2.55 ± 0.045 (ubr1∆).

As to HNVFSKEQTIQLPSKFT [RPN14], the protein stability index (doa10∆) was determined as 2.41 ± 0.11, the protein stability index (pdr5∆) turned out to be 2.79 ± 0.085, the protein stability index (san1∆) turned out to be 2.43 ± 0.12 and the protein stability index (ubr1∆) was 2.64 ± 0.099.

For the sequence ELPKFILSDSPLELSAP [DIS3], the protein stability index amounted to 2.5 ± 0.095 (doa10∆), 3.37 ± 0.17 (pdr5∆), 2.85 ± 0.19 (san1∆) and 3.04 ± 0.092 (ubr1∆).

Turning to MTEHETKDKAKKIREIY [BRR2], the protein stability index is, setting by setting: (doa10∆) 2.6 ± 0.17; (pdr5∆) 2.69 ± 0.11; (san1∆) 2.27 ± 0.18; (ubr1∆) 2.35 ± 0.1.

For DKVSSCFPQYVNSKQGA [NNF1], the protein stability index is, setting by setting: (doa10∆) 2.07 ± 0.088; (pdr5∆) 2.23 ± 0.091; (san1∆) 2.11 ± 0.12; (ubr1∆) 2.95 ± 0.092.

For RVAKGSGTSVFEVEMIL [SRP54], the protein stability index is, setting by setting: (doa10∆) 3.28 ± 0.071; (pdr5∆) 3.26 ± 0.099; (san1∆) 3.39 ± 0.076; (ubr1∆) 3.42 ± 0.12.

YTKKHLSSHSSTNSNSK [RPN4] gave a protein stability index (doa10∆) of 3.37 ± 0.14, a protein stability index (pdr5∆) of 3.11 ± 0.076, a protein stability index (san1∆) of 2.95 ± 0.055 and a protein stability index (ubr1∆) of 2.95 ± 0.061.

With ERKEQEEKEKEQSKEVG [BRN1], the protein stability index runs as follows: (doa10∆) 3.48 ± 0.21; (san1∆) 3.49 ± 0.11; (ubr1∆) 3.45 ± 0.14.

IITSGRDTREVLEERER [ARP9] yielded a protein stability index (doa10∆) of 3.41 ± 0.16, a protein stability index (pdr5∆) of 3.36 ± 0.14, a protein stability index (san1∆) of 3.52 ± 0.065 and a protein stability index (ubr1∆) of 3.52 ± 0.1.

Turning to NTVVGISGDISDMQHIE [PRE4], the protein stability index worked out at 2.94 ± 0.12 (doa10∆), 3.29 ± 0.12 (pdr5∆), 3.15 ± 0.17 (san1∆) and 2.82 ± 0.12 (ubr1∆).

As to IWPAEDALRRGMLAMAS [MED4], the protein stability index was determined as 3.12 ± 0.11 (doa10∆), 3.24 ± 0.099 (pdr5∆), 3.05 ± 0.075 (san1∆) and 3.27 ± 0.086 (ubr1∆).

In the case of QRQERLRQQQQQQDQPE [RPN10], the protein stability index is, setting by setting: (doa10∆) 3.34 ± 0.098; (pdr5∆) 2.88 ± 0.064; (san1∆) 2.86 ± 0.088; (ubr1∆) 3.22 ± 0.056.

On to YQLYTSNPSGNYTGWKA [PRE9], for which the protein stability index is 2.9 ± 0.065 (doa10∆), 3.08 ± 0.065 (pdr5∆), 3.14 ± 0.055 (san1∆) and 3.17 ± 0.04 (ubr1∆).

As for ILDLKEFDRRILKKSLM [RTT102], the protein stability index stood at 3.47 ± 0.23 (pdr5∆), 3.19 ± 0.099 (san1∆) and 3.22 ± 0.28 (ubr1∆).

Sequence EKLINNSDDCMMEEIIN [ECM29] came in with a protein stability index (doa10∆) of 3.36 ± 0.11, a protein stability index (pdr5∆) of 3.1 ± 0.11, a protein stability index (san1∆) of 3.1 ± 0.066 and a protein stability index (ubr1∆) of 3.13 ± 0.12.

These data come from the supplement of paper PMC9732359.
